According to publication PMC2676118:
Like-named read-outs stand apart in the source and are kept apart here.

What was measured:
Assay in all cases: AUC
[1] = target: FGF9^Eks, purified recombinant FGF9 with the Eks mutation N143T (UniProt P54130)
[2] = target: FGF9^WT, purified recombinant wild type FGF9 (UniProt P54130)
[3] = target: FGF9^WT, purified recombinant wild type FGF9 (UniProt P54130); remark: listed apart in the source

| Ka [1] | stoichiometry N [1] | Ka [2] | stoichiometry N [2] | stoichiometry N [3] | Substance |
| --- | --- | --- | --- | --- | --- |
| 119000 M⁻¹ | 2 | – | – | – | FGF9^Eks, purified recombinant FGF9 with the Eks mutation N143T (from UniProt P54130 4-208) (natural protein) |
| – | – | 1.04e+07 M⁻¹ | 2 | 2 | FGF9^WT, purified recombinant wild type FGF9 (from UniProt P54130 4-208) (natural protein) |
